Consider 16 sequences from the nanobody polyreactivity screen of Harvey et al. (2022).

The data set is described as follows: yeast display, Sf9 membrane polyspecificity reagent, FACS + sequencing; frameworks hold sequencing errors. The procedure, abridged:
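Using colony PCR, genes from sorted yeast display clones were amplified, then sequenced on MiSeq at 2 × 250 and filtered by CDR length. The clones had been stained with 10% biotinylated, detergent-solubilized Sf9 membrane reagent for 1 hour at 4 °C and sorted by FACS into low and high (top ~1%) gates on anti-HA and streptavidin fluorescence. Polyreactivity labels come from the gate of origin.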
Turning to “QVQLVESGGGLVQAGGSLRLSCAASGRTFRTYTMGWYRQAPGKEREFGAAITSSGASTYYADSVKGRFTISRDNAKNTVYLPMNSLKPEETAVYYCAARYGRRLVWVPALLYDYWGQGTQVTVSS”, the “polyreactivity (PSR sort gate)” value was “high polyreactivity”. In the case of “QVQLVESGGGLVQAGGSLRLSCAASGRTFRVNSMGWYRPAPGKDRELVATIRWTGGSTYYADSVKGRFTISRDNAKNTVYLQMNSLKPEDTAVYYCAARIAVYHRGIGGYWGQGTQVTVSS” it was “high polyreactivity”. In the case of “QVQLVESGGGLVQAGGSLRLSCAASGRTFRVYAMGWYRQAPGKERELVAAIRRSGGSTYYADSVKGRFTISRDNAKNTVYLQMNSLKPEDTAVYYCAAYFYYWGSTFVRYEYWGLGTQVTVSS”, the “polyreactivity (PSR sort gate)” value is “high polyreactivity”.

With “QVQLVESGGGLVQAGGSLRLSCAASGRTFRVYAMGWYRQAPGKERELVAAISGRGGSTYYADSVKGRFSISRDNAKNTVYFQMNSLKPEVTAVYYCAKSNPYLRLCEGNYWGQGTQVTVSS”, the “polyreactivity (PSR sort gate)” value is “high polyreactivity”. Next, “QVQLVESGGGLVQAGGSLRLSCAASGRTFRVYARGWYRQAPGKERELVATITSSGGSTYYADSVKGRFTISRDNAKNTVYLQMNSLKPEDTAVYYCNVSVYYNYDSSYYYWGQGTQVTVSS”: “low polyreactivity”.

For “QVQLVESGGGLVQAGGSLRLSCAASGRTFRWNAMGWSRQAPGKERELVASISSGGRTNYADSVKGRFTLSRDNAKNTVYLQMNSLKPEDTAVYYCAKRVSWPQLYDYWGQGTQVTVSS”, the “polyreactivity (PSR sort gate)” value is “high polyreactivity”. Next, “QVQLVESGGGLVQAGGSLRLSCAASGRTFRWNAMGWYRQAPGKERELVAAISSGGSTYYADSVKGRFTISRDNAKNTVYLQMNSLKPEDTAVYYCAKSSFKYRWSYPVISMDYWGQGTQVTVSS”: “high polyreactivity”; “QVQLVESGGGLVQAGGSLRLSCAASGRTFRWNAMVWYRQEPGKERELVARITSGGRTSYADSVKGRFTISRDNAKNTVYLQMNSLKPEDTAVYYCAARSIGYHWGYDYWGQGTQVTVSS”: “high polyreactivity”; “QVQLVESGGGLVQAGGSLRLSCAASGRTFRWYAMGWYRPAPAKERELVAAISSRGGSTYYADSVKGRFTISRDNAKNTVFLQMNSLKPEDTAVYYCAAVDNWLTLSDYDYWGQGTQVTVSS”: “low polyreactivity”.

Turning to “QVQLVESGGGLVQAGGSLRLSCAASGRTFRWYAMGWYRQAPGKEMELVAALTFRGGRTYYADSVKGRFTISRDNAKNTVYLQMNSLKPEDTAVYYCNAVTYSSPYRFDYWGQGTQVTVSS”, the “polyreactivity (PSR sort gate)” value is given as “low polyreactivity”. For the sequence “QVQLVESGGGLVQAGGSLRLSCAASGRTFRWYAMGWYRQAPGKERELVAAITSGGGTYYADSVKGRFTIARDNAKNTVYLQMNSLKPEDTAVYYCNKLHRDRYDYWGQGTQVTVSS”, the “polyreactivity (PSR sort gate)” value is “high polyreactivity”. In the case of “QVQLVESGGGLVQAGGSLRLSCAASGRTFRYNAMGSYRQAPGKERELVAAISGRGSSTYYADSVKGRFTISRDNAKNTVYLQMNSLKPEDTAVYYCAALPASVRRPGWHDYWGQGTQVTVSS” it was “high polyreactivity”; in that of “QVQLVESGGGLVQAGGSLRLSCAASGRTFRYNAMGWSRQAPGKERELVADITKSGGTTYYADSVKGRFTISRDNAKNTVYLQMNSLKPEDTAVYYCNAYRVVHPWEYDYWGQGTQVTVSS”, “high polyreactivity”; in that of “QVQLVESGGGLVQAGGSLRLSCAASGRTFRYNAMGWYRPAPGKERELVAAITKSGGTTYYADSVKGRFTISRDNAKNTVYLQMNSLKPEDTAVYYCNAYRVVHPWEYDYWGQGTQVTVSS”, “high polyreactivity”. In the case of “QVQLVESGGGLVQAGGSLRLSCAASGRTFRYNTMGCYRQAPGKERELVAAITKGAASTYYADSVKGRFTISRDNAKNTVYLQMNSLKPEDTAVYYCNAVYSRIVTQKYWGQGTQVTVSS” it was “high polyreactivity”; in that of “QVQLVESGGGLVQAGGSLRLSCAASGRTFRYYALGWYRQAPGKERELVAAITSSGDSTYYADSVKGRFTISRDNAKNTVYLQMHSLKQEDTAVYYCADGQPLFYDAEYGYWGQGTQVTVSS”, “low polyreactivity”.
